Measurements reported in patent US20050147610A1 (AbbVie / Abbott, published 2005).
Where a chain is given by its changes, count along the chain named. Where “and” joins values, the source holds several entries; their conditions need not be identical. Equal entries are not always repeated. Where two headings read alike, the source gives them in different places.

What was measured:
[1] = target: T1, NEM-huIL-18 (recombinant mature human IL-18 treated with N-ethyl maleiamide) (human, UniProt Q14116 37-193, cysteines protected with N-ethyl maleiamide (NEM)); test: cell-based or functional assay
[2] = target: recombinant mature human IL-18 (preparation not specified) (human, UniProt Q14116 37-193); test: cell-based or functional assay
[3] = target: T2, natural human IL-18 (endogenous, human whole blood) (human, UniProt Q14116 37-193); test: cell-based or functional assay
125I labeled rhu-IL-18 [4] = target: T3, 125I labeled rhu-IL-18 (human, UniProt Q14116 37-193, NEM-treated cysteines; 125I label on lysine residues); test: RBA: inhibition of 125I-rhu-IL-18 binding to IL-18Rαβ on KG-1 cells
[5] = target: T1, NEM-huIL-18 (recombinant mature human …); test: cell-based or functional assay; remark: listed apart in the source
[6] = target: T2, natural human IL-18 (endogenous, human …); test: cell-based or functional assay; remark: listed apart in the source
[7] = target: T1, NEM-huIL-18 (recombinant mature human …); test: Biacore, NEM-cys protected rhuIL-18
125I labeled rhu-IL-18 [8] = target: T3, 125I labeled rhu-IL-18; test: RBA: inhibition of 125I-rhu-IL-18 binding to IL-18Rαβ on KG-1 cells; remark: listed apart in the source

B1: 351 (antibody, V domains shown)
VH: ZVQLVESGGGVVQPGRSLRLSCAASGFTFSHYGMHWVRQAPGKGLEWVAVISYDGRNKYYVDSVKGRFTISRDNSKNTLYLQMNSLRAEDTAVFYCAREKGGSGWPPFYYYYGMDVWGQGTTVTVSS
VL: DIVMTQTPLSLSVTPGQPASISCKSSQNLLYSDGETYLCWYLQKPGQPPQLLIYEVSNRFSGVPERFSGSGSGTDFTLKISRVEAEDVGIYYCMQNVQLPLTFGGGTRVEIKR
KG-1 Assays (IC50, M), NEM-rhuIL-18 [1]: 2e-10 M

B2: 2.5.1 (antibody, V domains shown)
VH: ZVQLVQSGTEVKKPGESLKISCKGSGYTVTSYWIGWVRQMPGKGLEWMGFIYPGDSETRYSPTFQGQVTISADKSFNTAFLQWSSLKASDTAMYYCARVGSGWYPYTFDIWGQGTMVTVSS
VL: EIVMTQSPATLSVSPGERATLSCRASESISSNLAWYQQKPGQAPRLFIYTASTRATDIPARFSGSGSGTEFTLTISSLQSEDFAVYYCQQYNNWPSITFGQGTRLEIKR
KG-1 Assays (IC50, M), NEM-rhuIL-18 [1]: 3e-10 M and 4e-10 M

B3: 413 (antibody, V domains shown)
VH: ZTQLQESGPGLVKPSETLSLTCTVSGGSISSRVYYWGWIRQPPGKGLEWIGSIYYSGSTYYSPSLKSRVTISVDTSKNQFSLKLSSVTAADTAIYYCAREDSSAWVFEHWGQGTLVTVSS
VL: EIVLTQSPDTLSLSPGERATLSCRASQILSRNYLAWYQQKPGQAPRLLIYGISIRATGIPDRFSGSGSGADFTLTINRLEPEDFAVYYCQHYDNSLCSFGQGTKLEVKR
KG-1 Assays (IC50, M), NEM-rhuIL-18 [1]: 1e-09 M and 7e-10 M

B4: 435 (antibody, V domains shown)
VH: ZLQLQESGPGLVKPSETLSLTCTVSGGSIDSRIYYWGWIRQPPGKGLEWIGSIYYRGSTYYNPSLKSRVTISVDTPKNQFSLKLNSVTAADTAVYYCAREDSSAWVFDYWGQGTLATVSS
VL: EIVLTQSPGTLSLSPGERATLSCRASQSVRNNYLNWYQQKPGQAPRLLIYGAFSRATGIPDRFSGSGSGTDFTLTISSLEPEDFVVYYCQQYGNSIDSFGQGTKLEINR
KG-1 Assays (IC50, M), NEM-rhuIL-18 [1]: 8e-10 M and 7e-10 M and 4e-10 M

B5: IL-18BP-Fc (Fc fusion, UniProt O95998 31-194, looked up, not shown: a dimerising Fc or GST)
chain: TPVSQTTTAATASVRSTKDPCPSQPPVFPAAKQCPALEVTWPEVEVPLNGTLSLSCVACSRFPNFSILYWLGNGSFIEHLPGRLWEGSTSRERGSTGTQLCKALVLEQLTPALHSTNFSCVLVDPEQVVQRHVVLAQLWAGLRATLPPTQEALPSSHSSPQQQG
KG-1, Neutralization Potency in vitro (IC50, nM) [2]: 0.03 nM
WBA, Neutralization Potency in vitro (IC50, nM) [3]: 5.7 nM
IC50 (125I labeled rhu-IL-18 [4]): 1 nM

B6: 2.13.1 (antibody, V domains shown)
VH: ZVQLQESGPGLVTPSQTLSLTCTVSGGSISSGGHYWTWIRQHPGKGLEWIGYIYYSGSTYYNPSLKSRLTISVDTSKNQFSLKLSSVAAADTAVYYCARDRGGSGSYWDYWGQGTLVTVSS
VL: EIVLTQSPGTLSLSPGERATLSCRGSRSVSSGYLAWYQQKPGQAPRLLIYGVSIRATGIPDRFSGSGSGTDFTLTISRLEPEDFAVYYCQQYHGSPLTFGGGTKVEIKR
KG-1 Assays (IC50, M), NEM-rhuIL-18 [1]: 2e-10 M and 1e-10 M and 7e-11 M

B7: 2.13.1(E)wtg1 (antibody, V domains shown)
VH: B6 VH with Z1E
VL: B6 VL
KG-1 (IC50, nM) [5]: 0.12 nM
WBA (IC50, nM) [6]: 2 nM
Kd [7]: 0.2 nM
IC50 (125I labeled rhu-IL-18 [8]): 0.2 nM

B8: 215 (antibody, V domains shown)
VH: ZVQLQESGPGLVKPSQTLSLTCTVSGGSINSGDYYWSWIRQHPGKGLEWIGHISYRGTTYYNPSLKSRVTISVDTSKNQFSLKLSSVTAADTAVYCCARDRGGGFFDLWGRGTLVTVSS
VL: B6 VL with G25A, V29L, V52A, G69A, H93N, G94Y, K104R, K108N
KG-1 Assays (IC50, M), NEM-rhuIL-18 [1]: 1e-10 M and 3e-10 M
